B1: Seipin (Homo sapiens), Q96G97-4 (parent)
chain: MSTEKVDQKEEAGEKEVCGDQIKGPDKEEEPPAAASHGQGWRPGGRAARNARPEPGARHPALPAMVNDPPVPALLWAQEVGQVLAGRARRLLLQFGVLFCTILLLLWVSVFLYGSFYYSYMPTVSHLSPVHFYYRTDCDSSTTSLCSFPVANVSLTKGGRDRVLMYGQPYRVTLELELPESPVNQDLGMFLVTISCYTRGGRIISTSSRSVMLHYRSDLLQMLDTLVFSSLLLFGFAEQKQLLEVELYADYRENSYVPTTGAIIEIHSKRIQLYGAYLRIHAHFTGLRYLLYNFPMTCAFIGVASNFTFLSVIVLFSYMQWVWGGIWPRHRFSLQVNIRKRDNSRKEVQRRISAHQPGPEGQEESTPQSDVTEDGESPEDPSGTEGQLSEEEKPDQQPLSGEEELEPEASDGSGSWEDAALLTEANLPAPAPASASAPVLETLGSSEPAGGALRQRPTCSSS
B2: Circadian locomoter output cycles protein kaput (Homo sapiens), O15516 (parent)
chain: MLFTVSCSKMSSIVDRDDSSIFDGLVEEDDKDKAKRVSRNKSEKKRRDQFNVLIKELGSMLPGNARKMDKSTVLQKSIDFLRKHKEITAQSDASEIRQDWKPTFLSNEEFTQLMLEALDGFFLAIMTDGSIIYVSESVTSLLEHLPSDLVDQSIFNFIPEGEHSEVYKILSTHLLESDSLTPEYLKSKNQLEFCCHMLRGTIDPKEPSTYEYVKFIGNFKSLNSVSSSAHNGFEGTIQRTHRPSYEDRVCFVATVRLATPQFIKEMCTVEEPNEEFTSRHSLEWKFLFLDHRAPPIIGYLPFEVLGTSGYDYYHVDDLENLAKCHEHLMQYGKGKSCYYRFLTKGQQWIWLQTHYYITYHQWNSRPEFIVCTHTVVSYAEVRAERRRELGIEESLPETAADKSQDSGSDNRINTVSLKEALERFDHSPTPSASSRSSRKSSHTAVSDPSSTPTKIPTDTSTPPRQHLPAHEKMVQRRSSFSSQSINSQSVGSSLTQPVMSQATNLPIPQGMSQFQFSAQLGAMQHLKDQLEQRTRMIEANIHRQQEELRKIQEQLQMVHGQGLQMFLQQSNPGLNFGSVQLSSGNSSNIQQLAPINMQGQVVPTNQIQSGMNTGHIGTTQHMIQQQTLQSTSTQSQQNVLSGHSQQTSLPSQTQSTLTAPLYNTMVISQPAAGSMVQIPSSMPQNSTQSAAVTTFTQDRQIRFSQGQQLVTKLVTAPVACGAVMVPSTMLMGQVVTAYPTFATQQQQSQTLSVTQQQQQQSSQEQQLTSVQQPSQAQLTQPPQQFLQTSRLLHGNPSTQLILSAAFPLQQSTFPQSHHQQHQSQQQQQLSRHRTDSLPDPSKVQPQ
B3: Rho guanine nucleotide exchange factor 39 (Homo sapiens), Q8N4T4 (parent)
chain: MELSCPGSRCPVQEQRARWERKRACTARELLETERRYQEQLGLVATYFLGILKAKGTLRPPERQALFGSWELIYGASQELLPYLEGGCWGQGLEGFCRHLELYNQFAANSERSQTTLQEQLKKNKGFRRFVRLQEGRPEFGGLQLQDLLPLPLQRLQQYENLVVALAENTGPNSPDHQQLTRAARLISETAQRVHTIGQKQKNDQHLRRVQALLSGRQAKGLTSGRWFLRQGWLLVVPPHGEPRPRMFFLFTDVLLMAKPRPPLHLLRSGTFACKALYPMAQCHLSRVFGHSGGPCGGLLSLSFPHEKLLLMSTDQEELSRWYHSLTWAISSQKN
partner: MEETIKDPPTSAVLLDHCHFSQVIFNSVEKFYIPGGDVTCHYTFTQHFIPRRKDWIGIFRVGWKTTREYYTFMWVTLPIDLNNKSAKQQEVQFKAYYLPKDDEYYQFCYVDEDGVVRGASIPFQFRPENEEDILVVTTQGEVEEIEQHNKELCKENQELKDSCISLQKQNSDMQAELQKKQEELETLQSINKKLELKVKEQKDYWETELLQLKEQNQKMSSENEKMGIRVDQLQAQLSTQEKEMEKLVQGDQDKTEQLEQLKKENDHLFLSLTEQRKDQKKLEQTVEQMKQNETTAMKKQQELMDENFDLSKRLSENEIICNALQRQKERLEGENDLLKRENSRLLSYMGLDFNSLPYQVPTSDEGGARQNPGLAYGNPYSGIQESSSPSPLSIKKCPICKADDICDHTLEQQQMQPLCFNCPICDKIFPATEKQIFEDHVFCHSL
B4: Spermatogenesis-associated protein 2 (Homo sapiens), Q9UM82 (parent)
chain: MGKPSSMDTKFKDDLFRKYVQFHESKVDTTTSRQRPGSDECLRVAASTLLSLHKVDPFYRFRLIQFYEVVESSLRSLSSSSLRALHGAFSMLETVGINLFLYPWKKEFRSIKTYTGPFVYYVKSTLLEEDIRAILSCMGYTPELGTAYKLRELVETLQVKMVSFELFLAKVECEQMLEIHSQVKDKGYSELDIVSERKSSAEDVRGCSDALRRRAEGREHLTASMSRVALQKSASERAAKDYYKPRVTKPSRSVDAYDSYWESRKPPLKASLSLRKEPVATDVGDDLKDEIIRPSPSLLTMASSPHGSPDVLPPASPSNGPALLRGTYFSTQDDVDLYTDSEPRATYRRQDALRPDVWLLRNDAHSLYHKRSPPAKESALSKCQSCGLSCSSSLCQRCDSLLTCPPASKPSAFPSKASTHDSLAHGASLREKYPGQTQGLDRLPHLHSKSKPSTTPTSRCGFCNRPGATNTCTQCSKVSCDACLSAYHYDPCYKKSELHKFMPNNQLNYKSTQLSHLVYR
partner: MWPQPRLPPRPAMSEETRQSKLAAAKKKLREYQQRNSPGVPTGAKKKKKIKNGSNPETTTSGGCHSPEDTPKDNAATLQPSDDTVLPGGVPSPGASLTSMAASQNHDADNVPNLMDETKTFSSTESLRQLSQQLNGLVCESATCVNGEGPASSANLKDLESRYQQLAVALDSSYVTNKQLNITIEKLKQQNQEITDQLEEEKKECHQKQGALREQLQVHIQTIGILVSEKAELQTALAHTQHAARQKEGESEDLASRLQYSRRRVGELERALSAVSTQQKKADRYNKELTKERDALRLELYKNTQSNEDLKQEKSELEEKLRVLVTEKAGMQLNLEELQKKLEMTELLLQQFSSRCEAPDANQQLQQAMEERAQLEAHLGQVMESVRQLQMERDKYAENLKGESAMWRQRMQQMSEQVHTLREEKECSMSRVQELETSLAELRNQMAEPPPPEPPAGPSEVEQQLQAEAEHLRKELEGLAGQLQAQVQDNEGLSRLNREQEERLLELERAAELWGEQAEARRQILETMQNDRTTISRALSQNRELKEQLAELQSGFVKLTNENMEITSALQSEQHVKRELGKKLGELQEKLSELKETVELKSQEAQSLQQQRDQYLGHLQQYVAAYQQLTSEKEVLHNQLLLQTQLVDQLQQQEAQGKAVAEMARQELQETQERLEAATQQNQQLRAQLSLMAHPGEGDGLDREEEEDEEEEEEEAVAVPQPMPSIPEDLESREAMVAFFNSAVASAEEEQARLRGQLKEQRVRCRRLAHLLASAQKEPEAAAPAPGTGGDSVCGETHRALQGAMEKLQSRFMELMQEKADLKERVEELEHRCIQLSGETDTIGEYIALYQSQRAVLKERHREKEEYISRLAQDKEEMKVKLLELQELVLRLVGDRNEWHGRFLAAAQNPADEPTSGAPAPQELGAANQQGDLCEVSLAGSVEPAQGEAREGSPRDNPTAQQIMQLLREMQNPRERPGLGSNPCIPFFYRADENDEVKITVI

Variants of B1 are the subject of one test. As to conditions: with bscl2_human BSCL2, Q96G97.
Consider D20E, for which the “effect of a mutation on the interaction” value was “with no effect”.

In the next test the parent is B1. The following applies: with tmm19_human TMEM19, Q96HH6.
Sequence of tmm19_human TMEM19, Q96HH6 (Q96HH6 whole entry): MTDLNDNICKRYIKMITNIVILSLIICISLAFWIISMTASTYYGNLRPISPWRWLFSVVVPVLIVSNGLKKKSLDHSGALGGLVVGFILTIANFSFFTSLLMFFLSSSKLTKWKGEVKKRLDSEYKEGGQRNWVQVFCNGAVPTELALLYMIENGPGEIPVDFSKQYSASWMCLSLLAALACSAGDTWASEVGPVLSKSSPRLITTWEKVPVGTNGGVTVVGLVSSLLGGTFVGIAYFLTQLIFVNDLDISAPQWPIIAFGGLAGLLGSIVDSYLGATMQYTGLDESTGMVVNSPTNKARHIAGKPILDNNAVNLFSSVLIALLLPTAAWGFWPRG
On to D20E, for which the “effect of a mutation on the interaction” value is listed as “with no effect”.

In another test the parent is B2. As to conditions: with bmal1_human BMAL1, O00327.
Sequence of bmal1_human BMAL1, O00327 (O00327 whole entry): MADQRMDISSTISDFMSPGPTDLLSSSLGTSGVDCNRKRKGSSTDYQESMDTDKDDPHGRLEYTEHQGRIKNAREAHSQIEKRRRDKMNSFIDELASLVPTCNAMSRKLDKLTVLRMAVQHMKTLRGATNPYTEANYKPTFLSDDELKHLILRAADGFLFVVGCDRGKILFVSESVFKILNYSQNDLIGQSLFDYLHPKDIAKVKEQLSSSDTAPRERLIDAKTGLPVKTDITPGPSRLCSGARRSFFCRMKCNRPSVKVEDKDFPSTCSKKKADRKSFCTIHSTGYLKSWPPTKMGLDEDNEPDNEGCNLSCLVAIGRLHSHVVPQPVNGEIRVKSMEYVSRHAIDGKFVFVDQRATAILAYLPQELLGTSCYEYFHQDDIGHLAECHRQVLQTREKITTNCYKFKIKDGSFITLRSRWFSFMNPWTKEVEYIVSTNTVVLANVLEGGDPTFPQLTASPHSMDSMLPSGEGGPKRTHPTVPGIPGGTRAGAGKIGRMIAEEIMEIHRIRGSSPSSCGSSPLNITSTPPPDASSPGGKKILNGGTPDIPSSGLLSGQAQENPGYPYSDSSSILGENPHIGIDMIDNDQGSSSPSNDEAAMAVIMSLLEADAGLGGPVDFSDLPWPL
For G235E, the “effect of a mutation on the interaction” value was “with no effect”.

For the variant L395I, the “effect of a mutation on the interaction” value is given as “with no effect”.

Variants of B3 are the subject of the next test. The following applies: with caco2_human CALCOCO2, Q13137.
In the case of D204N, the “effect of a mutation on the interaction” value is recorded as “with no effect”.

R230C: the “effect of a mutation on the interaction” value is listed as “with no effect”.

The variants in the next test derive from B4. As to conditions: with goga2_human GOLGA2, Q08379.
Consider L443F, for which the “effect of a mutation on the interaction” value was “with no effect”.
